{"source": "paper PMC10776994", "about": "“The SDS22:PP1:I3 complex: SDS22 binding to PP1 loosens the active site metal to prime metal exchange” (The Journal of Biological Chemistry, 2023)", "binders": {"B1": {"name": "I3_(27-59) (Δ60–68) (domain or fragment, human, UniProt O60927 27-59, looked up)", "chain": "SLTIKLRKRKPEKKVEWTSDTVDNEHMGRRSSK", "notes": "made by a stop codon in the I3 27-68 construct; lacks the CCC motif; also called I3_(ΔCCC); CCC_(deletion); source: E. coli BL21 (DE3), purified (Ni-NTA, TEV, heat 95 °C, SEC); not shown: His6, N-terminal, cleaved; MBP, N-terminal, cleaved"}, "B2": {"name": "I3_(27-68) (domain or fragment, human, UniProt O60927 27-68, looked up)", "chain": "SLTIKLRKRKPEKKVEWTSDTVDNEHMGRRSSKCCCIYEKPR", "notes": "source: E. coli BL21 (DE3), purified (Ni-NTA, TEV, heat 95 °C, SEC); not shown: His6, N-terminal, cleaved; MBP, N-terminal, cleaved"}, "B3": {"name": "I3_(27-68) C60S/C61S/C62S (domain or fragment, human, UniProt O60927 27-68, looked up)", "chain": "B2 chain with C34S, C35S, C36S", "notes": "also called I3_(27-68) SSS; SSS: I3_(27-68) CCC→SSS; source: E. coli BL21 (DE3), purified (Ni-NTA, TEV, heat 95 °C, SEC); not shown: His6, N-terminal, cleaved; MBP, N-terminal, cleaved"}}, "details_in_all_cases": "both partners purified", "key": {"[1]": {"biological_target": "T1, SDS22_(56-360):PP1α_(7-330) complex (UniProt Q15435 56-360; P62136 7-330)", "T1 construct": "SDS22 (PPP1R7), residues 56-360; Protein phosphatase 1 alpha catalytic subunit (PP1α), residues 7-330; PP1 in this complex lacks the M1 metal; The same complex treated with EDTA (M2 metal extracted) is kept as this molecule and told apart by assay a4; the His6 tag of SDS22 was cleaved, so it is probably His6-PP1; also called SDS22:PP1; SDS22:PP1_(M2-metal-free) / metal-free …", "T1 sequence (Q15435 56-360, chain 1 of 2)": "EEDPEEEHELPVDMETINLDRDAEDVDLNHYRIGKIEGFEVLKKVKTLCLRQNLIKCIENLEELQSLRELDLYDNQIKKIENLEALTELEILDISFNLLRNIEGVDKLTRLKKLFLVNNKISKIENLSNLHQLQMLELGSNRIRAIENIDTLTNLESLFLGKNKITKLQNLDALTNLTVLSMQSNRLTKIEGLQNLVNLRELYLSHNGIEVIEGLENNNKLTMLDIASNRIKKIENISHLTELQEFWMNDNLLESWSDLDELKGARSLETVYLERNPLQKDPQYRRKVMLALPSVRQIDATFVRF", "T1 sequence (P62136 7-330, chain 2 of 2)": "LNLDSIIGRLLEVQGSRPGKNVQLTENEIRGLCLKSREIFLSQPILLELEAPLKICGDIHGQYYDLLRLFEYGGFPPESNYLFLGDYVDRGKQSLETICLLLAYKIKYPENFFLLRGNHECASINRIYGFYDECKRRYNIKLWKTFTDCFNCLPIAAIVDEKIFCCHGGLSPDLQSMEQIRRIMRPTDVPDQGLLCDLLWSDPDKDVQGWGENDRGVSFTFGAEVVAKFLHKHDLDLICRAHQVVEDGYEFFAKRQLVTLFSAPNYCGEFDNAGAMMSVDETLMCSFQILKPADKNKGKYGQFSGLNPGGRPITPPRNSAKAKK", "test": "SPR; His6-PP1 constructs or SDS22_(56-360):PP1α_(7-330) captured on a Ni-NTA chip (NiHC200M), I3 and variants injected; 25 °C; 20 mM Tris pH 8.0, 500 mM NaCl, 0.5 mM TCEP, 0.05% Tween-20; one-to-one one-state or two-state fit"}, "[2]": {"biological_target": "T1, SDS22_(56-360):PP1α_(7-330) complex", "test": "SPR; as a3, but SDS22_(56-360):PP1α_(7-330) treated with 3 mM EDTA beforehand and dialysed to extract the M2 metal (metal-free PP1); one-state fit"}, "PP1α_(7-330) R96A": {"biological_target": "T2, PP1α_(7-330) R96A (UniProt P62136 7-330, R96A)", "T2 construct": "Protein phosphatase 1 alpha catalytic subunit (PP1α), residues 7-330; also called PP1_(R96A); PP1_(7-330) R96A", "T2 sequence (P62136 7-330 R96A)": "as the sequence (P62136 7-330, chain 2 of 2) above, with R90A counted along it", "test": "SPR; His6-PP1 constructs or SDS22_(56-360):PP1α_(7-330) captured on a Ni-NTA chip (NiHC200M), I3 and variants injected; 25 °C; 20 mM Tris pH 8.0, 500 mM NaCl, 0.5 mM TCEP, 0.05% Tween-20; one-to-one one-state or two-state fit"}, "PP1α_(7-330) R96A/H66K": {"biological_target": "T3, PP1α_(7-330) R96A/H66K (UniProt P62136 7-330, R96A | H66K)", "T3 construct": "Protein phosphatase 1 alpha catalytic subunit (PP1α), residues 7-330; also called PP1_(7-330) R96A/H66K", "T3 sequence (P62136 7-330 H66K/R96A)": "as the sequence (P62136 7-330, chain 2 of 2) above, with H60K, R90A counted along it", "test": "SPR; His6-PP1 constructs or SDS22_(56-360):PP1α_(7-330) captured on a Ni-NTA chip (NiHC200M), I3 and variants injected; 25 °C; 20 mM Tris pH 8.0, 500 mM NaCl, 0.5 mM TCEP, 0.05% Tween-20; one-to-one one-state or two-state fit"}, "PP1α_(7-330) Y134A": {"biological_target": "T4, PP1α_(7-330) Y134A (UniProt P62136 7-330, Y134A)", "T4 construct": "Protein phosphatase 1 alpha catalytic subunit (PP1α), residues 7-330; also called PP1_(Y134A); PP1_(7-330) Y134A", "T4 sequence (P62136 7-330 Y134A)": "as the sequence (P62136 7-330, chain 2 of 2) above, with Y128A counted along it", "test": "SPR; His6-PP1 constructs or SDS22_(56-360):PP1α_(7-330) captured on a Ni-NTA chip (NiHC200M), I3 and variants injected; 25 °C; 20 mM Tris pH 8.0, 500 mM NaCl, 0.5 mM TCEP, 0.05% Tween-20; one-to-one one-state or two-state fit"}, "PP1α_(7-330) Y134A/H66K": {"biological_target": "T5, PP1α_(7-330) Y134A/H66K (UniProt P62136 7-330, Y134A | H66K)", "T5 construct": "Protein phosphatase 1 alpha catalytic subunit (PP1α), residues 7-330; also called PP1_(7-330) Y134A/H66K", "T5 sequence (P62136 7-330 H66K/Y134A)": "as the sequence (P62136 7-330, chain 2 of 2) above, with H60K, Y128A counted along it", "test": "SPR; His6-PP1 constructs or SDS22_(56-360):PP1α_(7-330) captured on a Ni-NTA chip (NiHC200M), I3 and variants injected; 25 °C; 20 mM Tris pH 8.0, 500 mM NaCl, 0.5 mM TCEP, 0.05% Tween-20; one-to-one one-state or two-state fit"}}, "note": "Numbering of substitutions follows the chain as printed. Names may count otherwise."}
{"binder": "B1", "values": [{"measurement": "Kd", "setting": "[1]", "value": "396 ± 11", "unit": "nM"}]}
{"binder": "B2", "values": [{"measurement": "Kd", "setting": "[2]", "value": "605 ± 32", "unit": "nM"}, {"measurement": "Kd", "setting": "PP1α_(7-330) R96A", "value": "12 ± 1", "unit": "nM"}, {"measurement": "Kd", "setting": "PP1α_(7-330) R96A/H66K", "value": "7 ± 1", "unit": "nM"}, {"measurement": "Kd", "setting": "PP1α_(7-330) Y134A", "value": "9 ± 2", "unit": "nM"}, {"measurement": "Kd", "setting": "PP1α_(7-330) Y134A/H66K", "value": "12 ± 3", "unit": "nM"}, {"measurement": "Kd", "setting": "[1]", "value": "116 ± 12", "unit": "nM"}]}
{"binder": "B3", "values": [{"measurement": "Kd", "setting": "[1]", "value": "429 ± 30", "unit": "nM"}]}
